Measured values reported in paper PMC12511343, “Structural insights into Cir-mediated killing by the antimicrobial protein Microcin V” (Communications Biology, 2025).

Tests used:
[1] = biological target: D85A and D85R (MccV mutants, as a group); experiment: BLI; biotinylated MccV (100 nM) loaded on streptavidin SA-XT sensors, Cir in twofold dilutions 5 uM to 78 nM in PBS-T; 300 s association, 240 s dissociation; first 30 s of association and dissociation fit to a 1:1 global model
[2] = biological target: T1, Cir TonB Box mutant M33C/V35P (in 4-Met Cir) (E. coli, UniProt P17315 26-663, W338 mutated to methionine | L343 mutated to methionine | F589 mutated to …); experiment: BLI
T1 sequence: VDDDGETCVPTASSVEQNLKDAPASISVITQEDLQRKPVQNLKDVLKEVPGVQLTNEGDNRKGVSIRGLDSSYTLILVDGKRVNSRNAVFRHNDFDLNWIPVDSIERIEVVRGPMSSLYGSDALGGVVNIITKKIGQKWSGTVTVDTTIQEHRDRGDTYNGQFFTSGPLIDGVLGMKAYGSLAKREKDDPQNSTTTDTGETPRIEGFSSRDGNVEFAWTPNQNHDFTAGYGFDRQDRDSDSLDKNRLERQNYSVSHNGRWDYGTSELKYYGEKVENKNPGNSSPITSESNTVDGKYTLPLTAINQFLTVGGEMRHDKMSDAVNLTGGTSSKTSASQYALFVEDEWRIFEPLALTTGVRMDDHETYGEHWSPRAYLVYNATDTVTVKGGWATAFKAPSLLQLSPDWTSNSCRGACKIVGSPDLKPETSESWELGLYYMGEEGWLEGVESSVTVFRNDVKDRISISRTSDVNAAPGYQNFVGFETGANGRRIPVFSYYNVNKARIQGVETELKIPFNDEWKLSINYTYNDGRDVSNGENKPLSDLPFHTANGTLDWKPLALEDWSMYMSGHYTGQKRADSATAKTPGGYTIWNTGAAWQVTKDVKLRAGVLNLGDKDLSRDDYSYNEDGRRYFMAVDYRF

[3] = biological target: T2, Cir C435A (in 4-Met Cir) (E. coli, UniProt P17315 26-663, W338 mutated to methionine | L343 mutated to methionine | F589 mutated to …); experiment: BLI
T2 sequence: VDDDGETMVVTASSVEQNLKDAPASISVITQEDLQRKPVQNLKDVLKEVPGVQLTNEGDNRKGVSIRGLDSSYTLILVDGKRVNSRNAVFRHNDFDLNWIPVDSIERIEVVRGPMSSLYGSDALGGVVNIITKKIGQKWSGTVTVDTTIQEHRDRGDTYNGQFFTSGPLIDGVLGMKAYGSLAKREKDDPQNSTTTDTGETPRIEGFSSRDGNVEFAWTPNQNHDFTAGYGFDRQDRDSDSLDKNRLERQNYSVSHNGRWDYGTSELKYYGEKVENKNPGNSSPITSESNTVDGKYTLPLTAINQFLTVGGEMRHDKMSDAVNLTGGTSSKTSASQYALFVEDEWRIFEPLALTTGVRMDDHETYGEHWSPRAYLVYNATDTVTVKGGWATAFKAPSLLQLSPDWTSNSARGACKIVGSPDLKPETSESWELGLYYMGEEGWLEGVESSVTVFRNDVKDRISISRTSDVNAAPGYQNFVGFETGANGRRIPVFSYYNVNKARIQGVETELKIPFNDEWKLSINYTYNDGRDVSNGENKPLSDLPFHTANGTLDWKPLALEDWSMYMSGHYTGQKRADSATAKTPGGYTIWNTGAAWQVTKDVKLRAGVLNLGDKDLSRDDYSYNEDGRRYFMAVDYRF

[4] = biological target: T3, Cir R436E/R490E (in 4-Met Cir) (E. coli, UniProt P17315 26-663, W338 mutated to methionine | L343 mutated to methionine | F589 mutated to …); experiment: BLI
T3 sequence: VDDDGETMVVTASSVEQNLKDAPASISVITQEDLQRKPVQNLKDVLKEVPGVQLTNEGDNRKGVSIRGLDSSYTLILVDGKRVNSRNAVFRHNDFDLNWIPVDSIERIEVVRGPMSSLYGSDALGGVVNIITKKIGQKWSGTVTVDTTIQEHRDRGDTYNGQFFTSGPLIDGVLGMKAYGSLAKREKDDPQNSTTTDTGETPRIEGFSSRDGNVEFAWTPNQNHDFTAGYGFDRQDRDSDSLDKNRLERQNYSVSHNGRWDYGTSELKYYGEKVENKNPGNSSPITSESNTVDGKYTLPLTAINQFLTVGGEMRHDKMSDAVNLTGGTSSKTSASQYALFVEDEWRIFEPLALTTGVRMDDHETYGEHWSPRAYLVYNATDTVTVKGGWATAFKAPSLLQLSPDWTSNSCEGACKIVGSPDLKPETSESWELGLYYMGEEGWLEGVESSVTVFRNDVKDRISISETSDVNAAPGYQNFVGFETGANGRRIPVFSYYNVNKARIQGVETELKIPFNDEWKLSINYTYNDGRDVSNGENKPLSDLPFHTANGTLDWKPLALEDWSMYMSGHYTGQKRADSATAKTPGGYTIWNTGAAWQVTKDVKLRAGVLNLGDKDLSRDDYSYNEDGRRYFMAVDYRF

[5] = biological target: T4, 4-Met substituted E. coli Cir (colicin Ia receptor), the paper's wildtype (WT) Cir (E. coli, UniProt P17315 26-663, W338 mutated to methionine | L343 mutated to methionine | F589 mutated to …); experiment: BLI + AUC; stoichiometry reported from the concurrence of BLI (1:1 model) and SV-AUC (single-site model); settings: both partners purified
T4 construct: Cir (colicin Ia receptor, TonB-dependent transporter), E. coli, mature coding region of cirA with four residues changed to methionine (4-Met); No TEV cleavage of Cir is described; also called apo-Cir; His-tagged Cir; not shown: His10, N-terminal, kept
T4 sequence (looked up): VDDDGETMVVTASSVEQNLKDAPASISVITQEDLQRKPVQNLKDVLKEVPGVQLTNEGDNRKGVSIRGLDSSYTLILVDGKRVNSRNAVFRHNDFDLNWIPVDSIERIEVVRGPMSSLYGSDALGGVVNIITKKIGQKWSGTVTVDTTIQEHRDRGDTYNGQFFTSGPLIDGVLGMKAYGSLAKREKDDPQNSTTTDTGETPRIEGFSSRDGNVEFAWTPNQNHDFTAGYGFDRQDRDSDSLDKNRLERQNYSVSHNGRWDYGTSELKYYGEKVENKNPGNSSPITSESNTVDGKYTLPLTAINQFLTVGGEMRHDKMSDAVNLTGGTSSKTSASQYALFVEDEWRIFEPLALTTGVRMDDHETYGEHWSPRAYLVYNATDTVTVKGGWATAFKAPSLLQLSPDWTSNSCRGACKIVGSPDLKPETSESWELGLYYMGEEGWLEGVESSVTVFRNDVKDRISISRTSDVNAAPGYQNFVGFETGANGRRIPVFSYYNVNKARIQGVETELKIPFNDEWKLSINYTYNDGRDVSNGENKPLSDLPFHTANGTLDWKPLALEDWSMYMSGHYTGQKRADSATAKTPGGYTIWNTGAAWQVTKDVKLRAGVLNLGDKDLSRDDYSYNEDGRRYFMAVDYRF

[6] = biological target: T4, 4-Met substituted E. coli Cir (colicin …); experiment: AUC; sedimentation velocity, NAPol-solubilised Cir and its mixtures with MccV in phosphate-buffered saline, 50,000 rpm, 20 C; single-site model; settings: both partners purified
[7] = biological target: T4, 4-Met substituted E. coli Cir (colicin …); experiment: BLI; biotinylated MccV (100 nM) on streptavidin sensors, WT Cir 5 uM to 78 nM in PBS-T; steady state equilibrium, 1:1 binding model; incomplete equilibrium during the association phase; settings: both partners purified
[8] = biological target: T4, 4-Met substituted E. coli Cir (colicin …); experiment: BLI; biotinylated MccV (100 nM) loaded on streptavidin SA-XT sensors, Cir in twofold dilutions 5 uM to 78 nM in PBS-T; 300 s association, 240 s dissociation; first 30 s of association and dissociation fit to a 1:1 global model; settings: both partners purified

B1: 4-Met substituted E. coli Cir (colicin Ia receptor), the paper's wildtype (WT) Cir (receptor)
chain: VDDDGETMVVTASSVEQNLKDAPASISVITQEDLQRKPVQNLKDVLKEVPGVQLTNEGDNRKGVSIRGLDSSYTLILVDGKRVNSRNAVFRHNDFDLNWIPVDSIERIEVVRGPMSSLYGSDALGGVVNIITKKIGQKWSGTVTVDTTIQEHRDRGDTYNGQFFTSGPLIDGVLGMKAYGSLAKREKDDPQNSTTTDTGETPRIEGFSSRDGNVEFAWTPNQNHDFTAGYGFDRQDRDSDSLDKNRLERQNYSVSHNGRWDYGTSELKYYGEKVENKNPGNSSPITSESNTVDGKYTLPLTAINQFLTVGGEMRHDKMSDAVNLTGGTSSKTSASQYALFVEDEWRIFEPLALTTGVRMDDHETYGEHWSPRAYLVYNATDTVTVKGGWATAFKAPSLLQLSPDWTSNSCRGACKIVGSPDLKPETSESWELGLYYMGEEGWLEGVESSVTVFRNDVKDRISISRTSDVNAAPGYQNFVGFETGANGRRIPVFSYYNVNKARIQGVETELKIPFNDEWKLSINYTYNDGRDVSNGENKPLSDLPFHTANGTLDWKPLALEDWSMYMSGHYTGQKRADSATAKTPGGYTIWNTGAAWQVTKDVKLRAGVLNLGDKDLSRDDYSYNEDGRRYFMAVDYRF
percent reduction in response shift relative to WT at 5 μM probe [1]: 40 to 45%

B2: Microcin V (MccV), mature, wildtype (natural protein, E. coli, UniProt P22522 16-103, looked up)
chain: ASGRDIAMAIGTLSGQFVAGGIGAAAGGVAGGAIYDYASTHKPNPAMSPSGLGGTIKQKPEGIPSEAWNYAAGRLCNWSPNNLSDVCL
modifications: biotinylated (EZ-Link Sulfo-NHS-LC kit) for BLI and ELISA; not labelled for cryo-EM and SV-AUC
notes: Only residues 57-88 (mature numbering) were resolved in the map; also called WT MccV; Colicin V; source: E. coli BL21 (DE3), purified (HisTrap as His6-MBP fusion, TEV cleavage, second nickel column, flowthrough); not shown: His6, N-terminal, cleaved; MBP, N-terminal, cleaved
Kd [2]: 374 nM
Kd [3]: 552 nM
Kd [4]: 1580 nM
stoichiometry N [5]: 1
Kd [6]: 600 ± 200 nM
Kd [7]: 1700 ± 1200 nM
Kd [8]: 155 ± 30 nM
